# Source: US20110091971A1, “Differentiation of Pluripotent Stem Cells” (priority 2008, published 2011)
# Substitutions are numbered along the chain they refer to.
# B1: ACTN88: activin A variant peptide, SEQ ID 89 (protein)
# chain: GLECDGKVNICCKKQSFGQTKDIGWNDWIIAPSGYHGGGCSGECPSHIAGTSGSSLSFHSTVINHYRMRGHSPWANLKSCCSPTKLRPMSMLYYDDGQNIIKKDIQNMVVEECGCT
# B2: ACTN60: activin A variant peptide, SEQ ID 61 (protein)
# chain: B1 chain with S82A, T116V
# B3: ACTN61: activin A variant peptide, SEQ ID 62 (protein)
# chain: B1 chain with S16L, G39S, S41T, W74N, V109K
# B4: ACTN92: activin A variant peptide, SEQ ID 93 (protein)
# chain: B1 chain with T20A, W74F, N107G, V109K
# B5: ACTN93: activin A variant peptide, SEQ ID 94 (protein)
# chain: B1 chain with S41T, W74F, V109K
# B6: ACTN27: activin A variant peptide, SEQ ID 28 (protein)
# chain: GLECDGKVNLCCKKQLFVSFKDIGWNDWIIAPSGYHANHCDGKCPSHIAGTSGSSLSFHSTVINHYRMRGHSPFANRGACCIPTKLRPMSMLYYDDGQNIIKKDIQNMIVEECGCS
# B7: ACTN42: activin A variant peptide, SEQ ID 43 (protein)
# chain: B6 chain with L10Y, L16D, H39K, D41S, A75S, N76D, R77M, A79S
# Tested on: H1 or H9 human embryonic stem cells
# Assay: Activin A bioassay: differentiation of human embryonic stem cells to definitive endoderm, cell number and SOX17 intensity by high content analysis (96-well, four days);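 for Cell Number average: Raw total cell count per well from high content imaging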;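 for Sox 17 Intensity average: total fluorescence of the cell multiplied by cell area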
# Format: cell-based
# Details: assay dilution 1:20; for Sox 17 Intensity % of control: control = R&D Sys Activin A 100 ng/ml on same plate
# Outline: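 Read-out was cell count and integrated SOX17 immunofluorescence by high-content imaging, with each well divided by the mean of the 100 ng/ml activin A control. Over the four-day culture, test samples were given in DMEM:F12 with 0.5% FCS plus 20 ng/ml Wnt3a for the first two days and in 2% FCS alone for the last two. Cells were H1 or H9 hESC clusters grown on Matrigel.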
# [1] = supernatant concentration 10x, assay plates #007, #009, #010
# [2] = supernatant concentration 50x, assay plates #008, #009
Molecule,Cell Number average [1],Sox 17 Intensity average [1],Sox 17 Intensity % of control (supernatant concentration 10x),Cell Number average [2],Sox 17 Intensity average [2],Sox 17 Intensity % of control (supernatant concentration 50x)
B1,11583,6.21E+05,2.8%,15317,2.87E+06,5.2%
B2,8303,5.90E+05,2.4%,10603,3.73E+06,15.0%
B3,15268,1.70E+06,6.8%,15256,7.18E+06,28.8%
B4,14298,5.60E+05,2.5%,15009,3.32E+06,6.0%
B5,13409,5.87E+05,2.7%,15900,2.67E+06,4.8%
B6,6664,1.39E+07,55.7%,6857,2.82E+07,113.1%
B7,9937,3.45E+06,13.8%,7805,7.53E+06,30.2%
